Experimental data: patent US8021833

Biological target: TSG101 (UniProt Q99816)
Experiment: cell-based or functional assay

UniProt Q99816, sequence (Q99816 2-390 limits assumed): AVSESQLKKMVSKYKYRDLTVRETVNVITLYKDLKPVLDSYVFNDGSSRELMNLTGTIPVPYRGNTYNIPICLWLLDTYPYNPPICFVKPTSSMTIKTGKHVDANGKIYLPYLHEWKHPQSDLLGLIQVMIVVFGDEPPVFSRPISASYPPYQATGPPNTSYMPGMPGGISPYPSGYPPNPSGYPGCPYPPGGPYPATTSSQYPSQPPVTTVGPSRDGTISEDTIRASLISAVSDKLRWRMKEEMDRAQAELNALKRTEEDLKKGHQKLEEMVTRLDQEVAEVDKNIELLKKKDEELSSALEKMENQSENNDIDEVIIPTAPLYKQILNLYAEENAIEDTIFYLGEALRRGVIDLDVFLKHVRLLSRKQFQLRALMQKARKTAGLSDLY

Substance	release of HIV-1 from transfected 293T cells	release of HIV-1 from transfected 293T cells, repeated experiments
Vps28 mutant with deletion of the N-terminal 27 amino acids, C-terminal Flag tag (from UniProt Q9UK41 28-221)	72 % reduction	
Vps28 mutant with deletion of amino acids 126 to 167, C-terminal Flag tag (from UniProt Q9UK41 1-125; Q9UK41 168-221)	63 % inhibition	
Vps28ΔC, C-terminal 43-amino acid deletion mutant of Vps28, C-terminal Flag tag (from UniProt Q9UK41 1-178)	67 % reduction	53 to 75 % inhibition
